Our source for the pKd values is PMC9482650, “Quantitative fragmentomics allow affinity mapping of interactomes” (Nature Communications, 2022).

Among the targets are DLG1_1, Q12959; DLG5_1, Q8TDM6; FRMPD2_1, Q68DX3; GRIP2_4, Q9C0E4; IL16_3, Q14005; Inadl_3, Q8NI35; Inadl_8, Q8NI35; LIMK2, P53671; MAGI1_1, Q96QZ7; MAGI2_4, Q86UL8; NHERF4_1, Q86UT5-2; SCRIB_3, Q14160.
Common to all, as to assay: holdup assay
Common to all, as to set-up: key: below the threshold = too weak to quantify, mostly under pKd 3.1 to 4

Another assay addresses T1, CARD11, Q9BXL7.
T1 sequence (Q9BXL7 662-765, limits assumed, looked up): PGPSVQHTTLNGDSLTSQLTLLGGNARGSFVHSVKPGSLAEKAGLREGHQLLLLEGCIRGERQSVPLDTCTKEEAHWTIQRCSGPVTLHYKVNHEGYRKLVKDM

A further assay concerns the target T2, DFNB31_1, Q9P202.
T2 sequence (Q9P202 135-233, limits assumed, looked up): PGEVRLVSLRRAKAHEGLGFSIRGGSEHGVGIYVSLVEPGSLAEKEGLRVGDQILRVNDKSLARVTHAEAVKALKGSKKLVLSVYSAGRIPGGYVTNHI

The target in the next assay is T3, DFNB31_2, Q9P202.
T3 sequence (Q9P202 274-371, limits assumed, looked up): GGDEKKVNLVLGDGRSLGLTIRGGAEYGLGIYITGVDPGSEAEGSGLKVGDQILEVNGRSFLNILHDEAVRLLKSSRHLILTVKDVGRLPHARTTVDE

In the next assay the target is T4, DLG3_1, Q92796.
T4 sequence (Q92796 125-227, limits assumed, looked up): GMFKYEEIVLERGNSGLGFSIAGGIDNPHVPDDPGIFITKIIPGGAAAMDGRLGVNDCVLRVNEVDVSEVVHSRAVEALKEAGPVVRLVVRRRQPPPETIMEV

The target in the next assay is T5, GRIP1_4, Q9Y3R0.
T5 sequence (Q9Y3R0 467-571, limits assumed, looked up): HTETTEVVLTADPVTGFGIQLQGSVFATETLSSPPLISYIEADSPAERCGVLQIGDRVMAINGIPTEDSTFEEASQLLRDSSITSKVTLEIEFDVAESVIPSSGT

Another assay deals with T6, LNX2_2, Q8N448.
T6 sequence (Q8N448 334-432, limits assumed, looked up): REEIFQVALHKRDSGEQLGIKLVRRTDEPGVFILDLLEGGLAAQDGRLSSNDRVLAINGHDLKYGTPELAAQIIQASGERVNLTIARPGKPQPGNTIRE

The target of a further assay is T7, MPDZ_10, O75970.
T7 sequence (O75970 1624-1722, limits assumed, looked up): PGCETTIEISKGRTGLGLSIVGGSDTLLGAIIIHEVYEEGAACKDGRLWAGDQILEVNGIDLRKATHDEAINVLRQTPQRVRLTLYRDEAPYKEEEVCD

The next assay has as its target T8, MPDZ_12, O75970.
T8 sequence (O75970 1857-1958, limits assumed, looked up): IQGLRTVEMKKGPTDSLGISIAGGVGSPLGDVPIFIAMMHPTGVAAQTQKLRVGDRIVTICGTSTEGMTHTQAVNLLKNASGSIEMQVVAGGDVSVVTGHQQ

A further assay deals with T9, PDZD2_2, O15018.
T9 sequence (O15018 329-429, limits assumed, looked up): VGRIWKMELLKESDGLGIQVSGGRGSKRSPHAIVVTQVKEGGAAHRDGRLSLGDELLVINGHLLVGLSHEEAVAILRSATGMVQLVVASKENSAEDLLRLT

In another assay the target is T10, RADIL, Q96JH8.
T10 sequence (Q96JH8 971-1071, limits assumed, looked up): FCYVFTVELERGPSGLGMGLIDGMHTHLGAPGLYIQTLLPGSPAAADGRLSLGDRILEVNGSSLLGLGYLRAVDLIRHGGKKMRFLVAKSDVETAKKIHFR

For another assay, the target named is T11, SNTG2, Q9NY99.
T11 sequence (Q9NY99 68-166, limits assumed, looked up): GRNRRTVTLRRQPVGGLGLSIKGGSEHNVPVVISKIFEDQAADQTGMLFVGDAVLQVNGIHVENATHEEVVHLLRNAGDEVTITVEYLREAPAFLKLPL

For another assay, the target named is T12, TX1BP3, O14907.
T12 sequence (O14907 10-122, limits assumed, looked up): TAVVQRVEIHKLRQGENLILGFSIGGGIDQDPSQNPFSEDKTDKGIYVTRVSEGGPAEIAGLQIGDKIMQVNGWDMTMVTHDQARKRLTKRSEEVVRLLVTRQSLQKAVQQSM

[1] abbreviates: plain residues with an end cap or a label only (N-terminal biotin on a linker: ttds).
Where [2] appears, read: plain residues with an end cap or a label only (N-terminal biotin on a linker: ahx).

As usually defined, the pKd is −log10 of the Kd, conventionally taken in molar units.

Chain of IL16_3, Q14005 (Q14005 1107-1207): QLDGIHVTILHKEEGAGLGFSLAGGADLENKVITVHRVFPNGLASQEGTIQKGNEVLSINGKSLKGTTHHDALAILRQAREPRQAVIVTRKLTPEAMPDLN
Chain of Inadl_8, Q8NI35 (Q8NI35 1425-1530): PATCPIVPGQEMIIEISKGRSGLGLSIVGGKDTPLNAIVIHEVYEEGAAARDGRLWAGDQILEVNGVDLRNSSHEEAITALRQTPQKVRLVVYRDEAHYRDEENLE
Chain of DLG5_1, Q8TDM6 (Q8TDM6 617-713): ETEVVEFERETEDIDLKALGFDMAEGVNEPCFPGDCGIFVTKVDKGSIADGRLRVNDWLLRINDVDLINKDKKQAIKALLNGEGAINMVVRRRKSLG
Chain of GRIP2_4, Q9C0E4 (Q9C0E4 446-548): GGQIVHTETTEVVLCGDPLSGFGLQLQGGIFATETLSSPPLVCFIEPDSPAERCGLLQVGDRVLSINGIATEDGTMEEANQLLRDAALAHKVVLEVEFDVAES
Chain of SCRIB_3, Q14160 (Q14160 999-1103): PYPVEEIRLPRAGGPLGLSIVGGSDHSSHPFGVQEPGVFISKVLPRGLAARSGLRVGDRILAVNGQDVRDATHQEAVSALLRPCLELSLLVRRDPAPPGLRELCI
Chain of LIMK2, P53671 (P53671 143-248): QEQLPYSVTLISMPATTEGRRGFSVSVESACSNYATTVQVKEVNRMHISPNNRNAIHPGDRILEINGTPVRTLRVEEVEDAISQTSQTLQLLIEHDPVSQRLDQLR
Chain of NHERF4_1, Q86UT5-2 (Q86UT5 other isoform, or with tags, fused parts or gaps): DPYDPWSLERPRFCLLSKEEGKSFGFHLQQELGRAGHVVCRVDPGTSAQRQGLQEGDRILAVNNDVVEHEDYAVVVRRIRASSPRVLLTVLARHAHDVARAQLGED
Chain of FRMPD2_1, Q68DX3 (Q68DX3 770-861): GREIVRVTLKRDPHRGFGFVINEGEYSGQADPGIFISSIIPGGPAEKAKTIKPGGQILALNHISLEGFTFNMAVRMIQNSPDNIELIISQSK
Chain of MAGI1_1, Q96QZ7 (Q96QZ7 1-106): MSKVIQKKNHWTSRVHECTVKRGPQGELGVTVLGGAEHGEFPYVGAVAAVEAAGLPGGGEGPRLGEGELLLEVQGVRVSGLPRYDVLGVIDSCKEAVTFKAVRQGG
Chain of Inadl_3, Q8NI35 (Q8NI35 359-469): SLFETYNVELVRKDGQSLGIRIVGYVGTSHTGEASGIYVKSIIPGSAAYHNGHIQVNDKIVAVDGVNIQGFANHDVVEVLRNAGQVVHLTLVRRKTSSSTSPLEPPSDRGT
Chain of MAGI2_4, Q86UL8 (Q86UL8 772-865): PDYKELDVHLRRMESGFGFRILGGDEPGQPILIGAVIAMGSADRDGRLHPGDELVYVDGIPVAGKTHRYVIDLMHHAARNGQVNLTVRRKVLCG

B1: HPV33-E6, P06427 (peptide)
chain: SRSRRRETAL
Consider B1, for which the pKd entry is “below the threshold” in the assay with CARD11, Q9BXL7 (setting [1]); 3.77 with DFNB31_1, Q9P202 (setting [1]); 3.55 with DFNB31_2, Q9P202 (setting [1]); 4.5 with DLG1_1, Q12959 (setting [1]); 3.79 with DLG3_1, Q92796 (setting [1]); “below the threshold” with DLG5_1, Q8TDM6 (setting [1]). Further, the pKd with FRMPD2_1, Q68DX3 (setting [1]) was 3.54; in the assay with GRIP1_4, Q9Y3R0 (setting [1]), “below the threshold”; with GRIP2_4, Q9C0E4 (setting [1]) it was “below the threshold”; with IL16_3, Q14005 (setting [1]), “below the threshold”; with Inadl_3, Q8NI35 (setting [1]), “below the threshold”; with Inadl_8, Q8NI35 (setting [1]), “below the threshold”. Further, the negative logarithm of the Kd (pKd) result with LIMK2, P53671 (setting [1]) was “below the threshold”; with LNX2_2, Q8N448 (setting [1]) it was “below the threshold”; with MAGI1_1, Q96QZ7 (setting [1]), “below the threshold”; with MAGI2_4, Q86UL8 (setting [1]) it was “below the threshold”; with MPDZ_10, O75970 (setting [1]), “below the threshold”; with MPDZ_12, O75970 (setting [1]), “below the threshold”. Moreover, the negative logarithm of the Kd (pKd) is 4.42 with NHERF4_1, Q86UT5-2 (setting [1]); “below the threshold” with PDZD2_2, O15018 (setting [1]); “below the threshold” with RADIL, Q96JH8 (setting [1]); 5.3 with SCRIB_3, Q14160 (setting [1]); 4.48 with SNTG2, Q9NY99 (setting [1]); 5.07 with TX1BP3, O14907 (setting [1]).

B2: FAT3, Q8TDW7 (peptide)
chain: FVETQHQTQV
Turning to B2, the negative logarithm of the Kd (pKd) result was “below the threshold” in the assay with CARD11, Q9BXL7 (setting [1]); 3.48 with DFNB31_1, Q9P202 (setting [1]); “below the threshold” in the assay with DFNB31_2, Q9P202 (setting [1]); 4.32 in the assay with DLG1_1, Q12959 (setting [1]); 3.85 with DLG3_1, Q92796 (setting [1]); “below the threshold” with DLG5_1, Q8TDM6 (setting [1]). Besides, the pKd result is given as “below the threshold” in the assay with FRMPD2_1, Q68DX3 (setting [1]); “below the threshold” with GRIP1_4, Q9Y3R0 (setting [1]); “below the threshold” with GRIP2_4, Q9C0E4 (setting [1]); “below the threshold” with IL16_3, Q14005 (setting [1]); “below the threshold” with Inadl_3, Q8NI35 (setting [1]); “below the threshold” in the assay with Inadl_8, Q8NI35 (setting [1]). Further, the negative-log Kd (pKd) result in the assay with LIMK2, P53671 (setting [1]) is “below the threshold”; with LNX2_2, Q8N448 (setting [1]) it was 3.75; with MAGI1_1, Q96QZ7 (setting [1]) it was “below the threshold”; with MAGI2_4, Q86UL8 (setting [1]) it was 3.91; with MPDZ_10, O75970 (setting [1]), “below the threshold”; in the assay with MPDZ_12, O75970 (setting [1]) it was “below the threshold”. Moreover, the negative logarithm of the Kd (pKd) result with NHERF4_1, Q86UT5-2 (setting [1]) was “below the threshold”; with PDZD2_2, O15018 (setting [1]) it was 4.35; with RADIL, Q96JH8 (setting [1]) it was 4.27; in the assay with SCRIB_3, Q14160 (setting [1]) it was 4.02; in the assay with SNTG2, Q9NY99 (setting [1]) it was 3.82; with TX1BP3, O14907 (setting [1]), 4.

B3: SHKBP1, Q8TBC3 (peptide)
chain: PKMKLNETSF
With B3, the negative logarithm of the Kd (pKd) entry with CARD11, Q9BXL7 (setting [2]) was “below the threshold”; with DFNB31_1, Q9P202 (setting [2]), 3.66; in the assay with DFNB31_2, Q9P202 (setting [2]), “below the threshold”; in the assay with DLG1_1, Q12959 (setting [2]), “below the threshold”; with DLG3_1, Q92796 (setting [2]), “below the threshold”; with DLG5_1, Q8TDM6 (setting [2]) it was “below the threshold”. Moreover, the pKd result with FRMPD2_1, Q68DX3 (setting [2]) was “below the threshold”; in the assay with GRIP1_4, Q9Y3R0 (setting [2]), “below the threshold”; with GRIP2_4, Q9C0E4 (setting [2]) it was “below the threshold”; with IL16_3, Q14005 (setting [2]) it was “below the threshold”; with Inadl_3, Q8NI35 (setting [2]) it was “below the threshold”; with Inadl_8, Q8NI35 (setting [2]), “below the threshold”. The negative logarithm of the Kd (pKd) entry was “below the threshold” with LIMK2, P53671 (setting [2]); “below the threshold” with LNX2_2, Q8N448 (setting [2]); “below the threshold” in the assay with MAGI1_1, Q96QZ7 (setting [2]); 3.69 with MAGI2_4, Q86UL8 (setting [2]); “below the threshold” in the assay with MPDZ_10, O75970 (setting [2]); “below the threshold” in the assay with MPDZ_12, O75970 (setting [2]). Further, the pKd in the assay with NHERF4_1, Q86UT5-2 (setting [2]) is 3.73; with PDZD2_2, O15018 (setting [2]) it was “below the threshold”; with RADIL, Q96JH8 (setting [2]), “below the threshold”; with SCRIB_3, Q14160 (setting [2]), 4.49; with SNTG2, Q9NY99 (setting [2]) it was “below the threshold”; with TX1BP3, O14907 (setting [2]), “below the threshold”.

B4: PDZRN3, Q9UPQ7 (peptide)
chain: YNSFLSVTTV
For the molecule B4, the pKd result was “below the threshold” with CARD11, Q9BXL7 (setting [2]); “below the threshold” with DFNB31_1, Q9P202 (setting [2]); “below the threshold” with DFNB31_2, Q9P202 (setting [2]); 3.81 with DLG1_1, Q12959 (setting [2]); “below the threshold” with DLG3_1, Q92796 (setting [2]); “below the threshold” with DLG5_1, Q8TDM6 (setting [2]). Besides, the pKd in the assay with FRMPD2_1, Q68DX3 (setting [2]) was 3.54; with GRIP1_4, Q9Y3R0 (setting [2]), “below the threshold”; with GRIP2_4, Q9C0E4 (setting [2]), “below the threshold”; with IL16_3, Q14005 (setting [2]), “below the threshold”; in the assay with Inadl_3, Q8NI35 (setting [2]) it was 3.76; with Inadl_8, Q8NI35 (setting [2]), 4.3. For the same molecule, the negative logarithm of the Kd (pKd) entry in the assay with LIMK2, P53671 (setting [2]) was “below the threshold”; with LNX2_2, Q8N448 (setting [2]), 4.94; with MAGI1_1, Q96QZ7 (setting [2]), “below the threshold”; in the assay with MAGI2_4, Q86UL8 (setting [2]), 4.56; with MPDZ_10, O75970 (setting [2]) it was 3.96; with MPDZ_12, O75970 (setting [2]), “below the threshold”. Also, the pKd entry is “below the threshold” with NHERF4_1, Q86UT5-2 (setting [2]); 3.55 with PDZD2_2, O15018 (setting [2]); 4.2 in the assay with RADIL, Q96JH8 (setting [2]); 3.64 in the assay with SCRIB_3, Q14160 (setting [2]); 3.81 in the assay with SNTG2, Q9NY99 (setting [2]); “below the threshold” with TX1BP3, O14907 (setting [2]).
